Measurements from article doi:10.1101/2025.11.17.688911.

Molecular target: full-length (FL) human MAP9 (GFP::Human MAP9::strepII) (human) (UniProt Q49MG5)
Sequence (Q49MG5 whole entry): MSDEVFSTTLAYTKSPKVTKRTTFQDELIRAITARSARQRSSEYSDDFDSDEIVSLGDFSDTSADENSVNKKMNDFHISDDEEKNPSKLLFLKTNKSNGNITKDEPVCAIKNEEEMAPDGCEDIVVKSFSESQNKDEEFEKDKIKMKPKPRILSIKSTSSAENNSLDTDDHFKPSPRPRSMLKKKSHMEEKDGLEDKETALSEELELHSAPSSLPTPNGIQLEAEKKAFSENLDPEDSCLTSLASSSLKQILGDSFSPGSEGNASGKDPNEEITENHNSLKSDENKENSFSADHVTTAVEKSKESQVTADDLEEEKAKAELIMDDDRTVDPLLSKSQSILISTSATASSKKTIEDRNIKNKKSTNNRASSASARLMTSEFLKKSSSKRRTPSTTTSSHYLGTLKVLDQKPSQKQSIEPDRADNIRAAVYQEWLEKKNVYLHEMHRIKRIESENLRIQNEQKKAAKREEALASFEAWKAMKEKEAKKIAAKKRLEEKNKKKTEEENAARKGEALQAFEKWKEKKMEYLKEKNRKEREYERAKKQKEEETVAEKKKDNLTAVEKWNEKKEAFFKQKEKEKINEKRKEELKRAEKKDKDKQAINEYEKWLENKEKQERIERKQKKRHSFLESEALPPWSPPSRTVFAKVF

## FL KIF1A (Human KIF1A::yBBR::strepII) (from UniProt Q12756 1-1690) (natural protein)
  run frequency of FL KIF1A on MTs decorated with MAP9 at low concentrations (<60 nM); slightly inhibited at higher concentrations: 2 fold
